Data from publication PMC3120129 (Biochemistry, 2011).

B1: E2 domain of APLP1, construct APLP1_(285–499) (crystallised) (domain or fragment, human, UniProt P51693 285-499, looked up)
chain: TPTPRPTDGVDIYFGMPGEISEHEGFLRAKMDLEERRMRQINEVMREWAMADNQSKNLPKADRQALNEHFQSILQTLEEQVSGERQRLVETHATRVIALINDQRRAALEGFLAALQADPPQAERVLLALRRYLRAEQKEQRHTLRHYQHVAAVDPEKAQQMRFQVHTHLQVIEERVNQSLGLLDQNPHLAQELRPQIQELLHSEHLGPSELEAPA

What was measured:
[1] = target: E2 domain of amyloid precursor protein (APP), construct APP_(346–548), native (human) (UniProt P05067); assay: AUC
crystal structure = target: the molecule itself; assay: crystal structure

Molecule	Kd [1]	stoichiometry N [1]	binding result (crystal structure)
E2 domain of amyloid precursor protein (APP), construct APP_(346–548), native (from UniProt P05067-8 346-548) (domain or fragment)	9.2 µM	2	–
B1	–	–	binds
